Measured values reported in PMC9637919.
Read-outs that look alike come from different tables or passages of the source.

T1: Csy complex (type I-F surveillance complex) (UniProt Q02ML9;Q02MM0;Q02MM1;Q02MM2 1-434;1-327;1-342;1-187)
T1 sequence 1: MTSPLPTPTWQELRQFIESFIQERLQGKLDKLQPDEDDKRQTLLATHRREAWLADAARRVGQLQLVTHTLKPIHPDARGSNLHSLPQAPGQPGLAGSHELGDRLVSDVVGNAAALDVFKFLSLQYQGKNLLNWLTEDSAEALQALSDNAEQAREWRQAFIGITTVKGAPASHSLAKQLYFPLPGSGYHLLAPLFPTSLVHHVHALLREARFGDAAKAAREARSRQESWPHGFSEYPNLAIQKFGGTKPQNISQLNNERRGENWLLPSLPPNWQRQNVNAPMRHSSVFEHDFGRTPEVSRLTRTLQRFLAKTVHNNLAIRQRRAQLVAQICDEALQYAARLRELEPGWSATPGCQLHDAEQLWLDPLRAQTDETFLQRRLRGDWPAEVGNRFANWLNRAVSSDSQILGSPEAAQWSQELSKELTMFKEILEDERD
T1 sequence 2: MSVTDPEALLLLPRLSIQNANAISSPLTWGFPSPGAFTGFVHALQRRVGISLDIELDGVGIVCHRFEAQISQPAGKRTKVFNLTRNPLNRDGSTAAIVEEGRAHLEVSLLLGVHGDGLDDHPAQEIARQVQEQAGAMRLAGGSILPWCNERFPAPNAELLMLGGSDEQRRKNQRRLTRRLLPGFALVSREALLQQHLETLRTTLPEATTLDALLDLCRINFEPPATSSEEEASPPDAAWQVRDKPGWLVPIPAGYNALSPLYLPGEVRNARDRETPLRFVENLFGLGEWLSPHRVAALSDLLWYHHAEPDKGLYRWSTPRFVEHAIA
T1 sequence 3: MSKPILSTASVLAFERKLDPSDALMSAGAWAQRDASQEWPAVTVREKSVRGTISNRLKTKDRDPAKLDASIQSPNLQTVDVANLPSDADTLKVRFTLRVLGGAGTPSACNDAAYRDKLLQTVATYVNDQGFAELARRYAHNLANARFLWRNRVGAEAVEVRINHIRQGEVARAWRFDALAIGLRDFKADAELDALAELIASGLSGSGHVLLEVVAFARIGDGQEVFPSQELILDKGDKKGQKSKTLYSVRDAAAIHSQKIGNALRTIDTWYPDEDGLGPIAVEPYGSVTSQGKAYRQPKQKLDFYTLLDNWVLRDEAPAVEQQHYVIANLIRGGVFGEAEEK
T1 sequence 4: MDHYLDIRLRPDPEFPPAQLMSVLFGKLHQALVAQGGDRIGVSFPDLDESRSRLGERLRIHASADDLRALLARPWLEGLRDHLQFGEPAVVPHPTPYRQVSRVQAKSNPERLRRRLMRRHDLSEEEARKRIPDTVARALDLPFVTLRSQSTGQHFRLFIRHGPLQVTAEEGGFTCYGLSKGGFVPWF


Experiments:
Experiment in all cases: EMSA
[1] = molecular target: T1, Csy complex (type I-F surveillance …)
[2] = molecular target: T2, Csy complex (type I-F surveillance complex);Cas2/3 (;, UniProt Q02ML9;Q02MM0;Q02MM1;Q02MM2;Q02ML8 1-434;1-327;1-342;1-187;1-1076, |)
[3] = molecular target: Csy M (Cas8f R299G/R302A);Cas2/3 (;, UniProt Q02ML9;Q02MM0;Q02MM1;Q02MM2;Q02ML8 1-434;1-327;1-342;1-187;1-1076, R299G;R302A|)
[4] = molecular target: T2, Csy complex (type I-F surveillance …); remark: listed apart in the source

Binder | Kd [1] | binding result [2] | binding result [3] | binding result [4]
54-bp target dsDNA, 5'-FAM TS (dsDNA) DNA 1: GGAAGCCATCCAGGTAGACGCGGACATCAAGCCCGCCGTGAAGGTGCAGCTGCT DNA 2: AGCAGCTGCACCTTCACGGCGGGCTTGATGTCCGCGTCTACCTGGATGGCTTCC | 9.46 ± 0.82 nM | binds | – | –
54-bp dsDNA bubble, 5'-FAM TS (dsDNA) DNA 1: GGAAGCCATCCAGGTAGACGCGGACATCAAGCCCGCCGTGAAGGTGCAGCTGCT DNA 2: AGCAGCTGCACCAAGTGCCGCCGCTTGATGTCCGCGTCTACCTGGATGGCTTCC | 8.15 ± 0.62 nM | – | binds | binds
